The values that follow come from US20040018204A1.

To fix the notation:
B1: WT1 peptide P125-133 (…) (peptide)
peptide: ARMFPNAPY
B2: WT1 peptide P121-129 (…) (peptide)
peptide: SSGQARMFP
B3: WT1 peptide P131-139 (…) (peptide)
peptide: APYLPSCLE
B4: WT1 peptide P118-126 (…) (peptide)
peptide: SQASSGQAR
B5: WT1 peptide P130-138 (…) (peptide)
peptide: NAPYLPSCL
B6: WT1 peptide P117-125 (…) (peptide)
peptide: PSQASSGQA
B7: WT1 peptide P120-128 (…) (peptide)
peptide: ASSGQARMF
B8: WT1 peptide P128-136 (…) (peptide)
peptide: FPNAPYLPS
B9: WT1 peptide P129-137 (…) (peptide)
peptide: PNAPYLPSC
B10: WT1 peptide P119-127 (…) (peptide)
peptide: QASSGQARM
B11: WT1 peptide P124-132 (…) (peptide)
peptide: QARMFPNAP
B12: WT1 peptide P127-135 (…) (peptide)
peptide: MFPNAPYLP
B13: WT1 peptide p228-236 (…) (peptide)
peptide: QMTSQLECM
B14: WT1 peptide p225-233 (…) (peptide)
peptide: NLYQMTSQL
B15: WT1 peptide p221-229 (…) (peptide)
peptide: YSSDNLYQM
B16: WT1 peptide p329-337 (…) (peptide)
peptide: GCNKRYFKL
B17: WT1 peptide p235-243 (…) (peptide)
peptide: CMTWNQMNL
B18: WT1 peptide p239-247 (…) (peptide)
peptide: NQMNLGATL
B19: WT1 peptide p136-144 human (…) (peptide)
peptide: SCLESQPAI
B20: WT1 peptide p10-18 human (…) (peptide)
peptide: ALLPAVPSL

One assay deals with mouse B6 MHC class I antigens (H-2b: D^b or K^b) on the surface of RMA-S cells (mouse). The assay can be described thus: binding of 9mer peptides within p117-139 to mouse B6 (H-2b) class I antigens; RMA-S assay as for Table XLVII.
Molecule B1 yielded a Binding Affinity to Mouse MHC Class I of 1%.
As for B2, the Binding Affinity to Mouse MHC Class I was determined as 1%.
As to B3, the Binding Affinity to Mouse MHC Class I was 1%.
The same measure, in the same setting: in the case of B4 it was 2%; in that of B5, 79%.
The same measure, in the same setting: in the case of B6 it was 2%; in that of B7, 1%; in that of B8, 1%.
Same read-out and setting: in the case of B9 it was 1%; in that of B10, 2%.
In turn, B11 gave a Binding Affinity to Mouse MHC Class I of 1%.
Same read-out and setting: in the case of B12 it was 2%.

The next assay has the same target. The assay can be described thus: RMA-S class I stabilisation, peptide 25 ug/ml, flow cytometry with FITC anti-D^b or anti-K^b, MFI against medium alone.
Turning to B13, the Binding Affinity to Mouse MHC Class I (% increase of class I on RMA-S cells) stood at 1.2%.
The molecule B14 yielded a Binding Affinity to Mouse MHC Class I (% increase of class I on RMA-S cells) of 5.8%.
The same measure, in the same setting: then B15, with 0.8%.
The same measure, in the same setting: in the case of B16 it was 1.2%; in that of B17, 33.6%.
Still for that read-out and setting: in the case of B18 it was 1%; in that of B19, 52%; in that of B20, 2.2%.
